Assays:
[1] = system: Bacillus subtilis ATCC 6633; experiment: Agar diffusion test: inhibition by hydrogen peroxide on TSA-LT agar plates with additives; format: cell-based; details: 10 μl on paper disc; for Inhibition on gamma-irradiated agar plates: gamma-irradiated 20.5 kGy; for Inhibition on agar plates: not irradiated
[2] = system: Bacillus subtilis ATCC 6633; experiment: Growth promotion test: colonies on TSA-LT agar plates treated with hydrogen peroxide; format: cell-based; details: for Colonies on agar: no catalase, hydrogen peroxide as in Example 3; for Colonies on gamma-irradiated agar / Colonies on agar plates: 300 μl 1% hydrogen peroxide (100 ppm in medium); for Colonies on gamma-irradiated agar: gamma-irradiated 20.5 kGy; for Colonies on agar plates: not irradiated
[3] = 8000 international units of catalase per plate; cited from earlier work
[4] = sodium pyruvate 2.00 g/l together with sodium thiosulfate 0.05 g/l, 2% hydrogen peroxide
[5] = sodium pyruvate 2.00 g/l together with sodium thiosulfate 0.05 g/l, 5% hydrogen peroxide
[6] = sodium pyruvate 2.00 g/l together with sodium thiosulfate 0.05 g/l, 8% hydrogen peroxide
[7] = sodium pyruvate 2.00 g/l together with sodium thiosulfate 0.05 g/l, 10% hydrogen peroxide
[8] = sodium pyruvate 2.00 g/l together with sodium thiosulfate 0.05 g/l
[9] = 80 U/plate, 2% hydrogen peroxide
[10] = 80 U/plate, 5% hydrogen peroxide
[11] = 80 U/plate, 8% hydrogen peroxide
[12] = 80 U/plate, 10% hydrogen peroxide
[13] = 150 U/plate, 2% hydrogen peroxide
[14] = 150 U/plate, 5% hydrogen peroxide
[15] = 150 U/plate, 8% hydrogen peroxide
[16] = 150 U/plate, 10% hydrogen peroxide
[17] = 300 U/plate, 2% hydrogen peroxide
[18] = 300 U/plate, 5% hydrogen peroxide
[19] = 300 U/plate, 8% hydrogen peroxide
[20] = 300 U/plate, 10% hydrogen peroxide

CC(=O)C(=O)[O-].[Na+] [Sodium pyruvate, reference compound]
Inhibition on gamma-irradiated agar plates [1, 4]: 0 mm
Inhibition on agar plates [1, 4]: 0 mm
Inhibition on gamma-irradiated agar plates [1, 5]: 1 mm
Inhibition on agar plates [1, 5]: 1 mm
Inhibition on gamma-irradiated agar plates [1, 6]: 2 mm
Inhibition on agar plates [1, 6]: 2 mm
Inhibition on gamma-irradiated agar plates [1, 7]: 3 mm
Inhibition on agar plates [1, 7]: 2.5 mm
growth in agar plates with hydrogen peroxide ([2]; 0.2 g/l sodium pyruvate and 0.005 g/l sodium thiosulfate without catalase): did not support growth
Colonies on agar ([2]; sodium pyruvate 0.20 g/l with sodium thiosulfate 0.005 g/l): 0 CFU
Colonies on gamma-irradiated agar [2, 8]: 229 CFU
Colonies on agar plates [2, 8]: 161 CFU
Colonies on agar ([2]; sodium pyruvate 2.00 g/l with sodium thiosulfate 0.05 g/l): 125 CFU

catalase
recovery [3]: 60%

B1: Catalase from bovine liver: Catalase prepared from commercial product C9322 (Sigma), dissolved in 0.1 M potassium phosphate pH 7.0; comparator (protein, UniProt P00432 2-527, looked up)
Catalase: ADNRDPASDQMKHWKEQRAAQKPDVLTTGGGNPVGDKLNSLTVGPRGPLLVQDVVFTDEMAHFDRERIPERVVHAKGAGAFGYFEVTHDITRYSKAKVFEHIGKRTPIAVRFSTVAGESGSADTVRDPRGFAVKFYTEDGNWDLVGNNTPIFFIRDALLFPSFIHSQKRNPQTHLKDPDMVWDFWSLRPESLHQVSFLFSDRGIPDGHRHMNGYGSHTFKLVNANGEAVYCKFHYKTDQGIKNLSVEDAARLAHEDPDYGLRDLFNAIATGNYPSWTLYIQVMTFSEAEIFPFNPFDLTKVWPHGDYPLIPVGKLVLNRNPVNYFAEVEQLAFDPSNMPPGIEPSPDKMLQGRLFAYPDTHRHRLGPNYLQIPVNCPYRARVANYQRDGPMCMMDNQGGAPNYYPNSFSAPEHQPSALEHRTHFSGDVQRFNSANDDNVTQVRTFYLKVLNEEQRKRLCENIAGHLKDAQLFIQKKAVKNFSDVHPEYGSRIQALLDKYNEEKPKNAVHTYVQHGSHLSAREKANL
Inhibition on gamma-irradiated agar plates [1, 9]: 3.5 mm
Inhibition on agar plates [1, 9]: 1 mm
Inhibition on gamma-irradiated agar plates [1, 10]: 7 mm
Inhibition on agar plates [1, 10]: 5 mm
Inhibition on gamma-irradiated agar plates [1, 11]: 8 mm
Inhibition on agar plates [1, 11]: 6 mm
Inhibition on gamma-irradiated agar plates [1, 12]: 8.5 mm
Inhibition on agar plates [1, 12]: 7 mm
Inhibition on gamma-irradiated agar plates [1, 13]: 2 mm
Inhibition on agar plates [1, 13]: 0.5 mm
Inhibition on gamma-irradiated agar plates [1, 14]: 6 mm
Inhibition on agar plates [1, 14]: 4 mm
Inhibition on gamma-irradiated agar plates [1, 15]: 7.5 mm
Inhibition on agar plates [1, 15]: 5 mm
Inhibition on gamma-irradiated agar plates [1, 16]: 8 mm
Inhibition on agar plates [1, 16]: 6 mm
Inhibition on gamma-irradiated agar plates [1, 17]: 1.5 mm
Inhibition on agar plates [1, 17]: 0 mm
Inhibition on gamma-irradiated agar plates [1, 18]: 5.5 mm
Inhibition on agar plates [1, 18]: 2 mm
Inhibition on gamma-irradiated agar plates [1, 19]: 6.5 mm
Inhibition on agar plates [1, 19]: 4 mm
Inhibition on gamma-irradiated agar plates [1, 20]: 7.5 mm
Inhibition on agar plates [1, 20]: 4.5 mm
Colonies on gamma-irradiated agar ([2]; 80 U/plate): 0 CFU
Colonies on agar plates ([2]; 80 U/plate): 0 CFU
Colonies on gamma-irradiated agar ([2]; 150 U/plate): 0 CFU
Colonies on agar plates ([2]; 150 U/plate): 0 CFU
Colonies on gamma-irradiated agar ([2]; 300 U/plate): 0 CFU
Colonies on agar plates ([2]; 300 U/plate): 0 CFU
recovery of the applied colony forming units ([2]; highest tested concentration of 300 U/plate, not irradiated medium): 0%
